Reference: US20260209386A1 (MYTHIC THERAPEUTICS, published 2026)

T1: Recombinant human CCK4/PTK7 Protein (His Tag), Sino Biological 19399-H08H (human, UniProt Q13308 31-704)
T1 construct: bought protein; not shown: His tag
T1 sequence: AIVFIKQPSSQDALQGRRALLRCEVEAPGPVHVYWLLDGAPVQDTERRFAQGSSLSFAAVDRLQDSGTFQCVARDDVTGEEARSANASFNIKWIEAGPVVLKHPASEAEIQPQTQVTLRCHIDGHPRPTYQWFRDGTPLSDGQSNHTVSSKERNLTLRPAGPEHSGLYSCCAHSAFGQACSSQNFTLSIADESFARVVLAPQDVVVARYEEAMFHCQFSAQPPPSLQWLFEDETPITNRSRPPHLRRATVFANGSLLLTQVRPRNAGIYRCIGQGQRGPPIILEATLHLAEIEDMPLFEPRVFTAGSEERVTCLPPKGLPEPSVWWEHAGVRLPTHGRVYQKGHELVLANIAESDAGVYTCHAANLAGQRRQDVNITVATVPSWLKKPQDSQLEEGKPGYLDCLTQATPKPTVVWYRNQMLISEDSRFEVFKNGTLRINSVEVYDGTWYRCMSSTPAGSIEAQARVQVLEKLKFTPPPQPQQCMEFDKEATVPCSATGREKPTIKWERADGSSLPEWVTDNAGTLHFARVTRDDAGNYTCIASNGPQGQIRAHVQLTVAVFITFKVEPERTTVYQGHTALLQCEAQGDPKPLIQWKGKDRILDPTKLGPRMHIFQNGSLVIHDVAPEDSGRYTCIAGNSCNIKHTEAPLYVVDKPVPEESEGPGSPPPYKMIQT

T2: Human PTK7 Protein, His Tag, Acro Biosystems (human, UniProt Q13308 31-704)
T2 construct: Bought recombinant protein; also called CCK4; not shown: His tag
T2 sequence: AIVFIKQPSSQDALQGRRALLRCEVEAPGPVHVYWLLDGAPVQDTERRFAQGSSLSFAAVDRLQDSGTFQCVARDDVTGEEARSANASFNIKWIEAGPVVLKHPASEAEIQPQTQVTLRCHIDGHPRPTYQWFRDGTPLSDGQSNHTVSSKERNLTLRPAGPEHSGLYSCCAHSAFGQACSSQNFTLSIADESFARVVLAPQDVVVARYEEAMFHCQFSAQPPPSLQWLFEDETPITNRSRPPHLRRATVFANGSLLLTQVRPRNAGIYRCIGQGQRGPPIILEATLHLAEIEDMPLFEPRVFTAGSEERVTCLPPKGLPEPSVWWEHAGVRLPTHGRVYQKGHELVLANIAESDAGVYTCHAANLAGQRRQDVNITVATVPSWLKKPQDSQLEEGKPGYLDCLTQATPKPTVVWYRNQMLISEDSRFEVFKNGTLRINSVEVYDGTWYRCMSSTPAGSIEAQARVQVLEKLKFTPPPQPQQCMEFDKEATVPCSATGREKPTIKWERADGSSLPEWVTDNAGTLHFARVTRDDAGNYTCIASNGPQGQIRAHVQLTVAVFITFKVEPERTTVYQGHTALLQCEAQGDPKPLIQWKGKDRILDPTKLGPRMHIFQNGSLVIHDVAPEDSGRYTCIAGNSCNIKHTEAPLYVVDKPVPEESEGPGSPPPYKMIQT

T3: Human PTK7 Protein, His Tag (Acro Biosystems) (human, UniProt Q13308 31-704)
T3 construct: Bought recombinant protein; also called CCK4; tyrosine-protein kinase-like 7; not shown: His tag
T3 sequence: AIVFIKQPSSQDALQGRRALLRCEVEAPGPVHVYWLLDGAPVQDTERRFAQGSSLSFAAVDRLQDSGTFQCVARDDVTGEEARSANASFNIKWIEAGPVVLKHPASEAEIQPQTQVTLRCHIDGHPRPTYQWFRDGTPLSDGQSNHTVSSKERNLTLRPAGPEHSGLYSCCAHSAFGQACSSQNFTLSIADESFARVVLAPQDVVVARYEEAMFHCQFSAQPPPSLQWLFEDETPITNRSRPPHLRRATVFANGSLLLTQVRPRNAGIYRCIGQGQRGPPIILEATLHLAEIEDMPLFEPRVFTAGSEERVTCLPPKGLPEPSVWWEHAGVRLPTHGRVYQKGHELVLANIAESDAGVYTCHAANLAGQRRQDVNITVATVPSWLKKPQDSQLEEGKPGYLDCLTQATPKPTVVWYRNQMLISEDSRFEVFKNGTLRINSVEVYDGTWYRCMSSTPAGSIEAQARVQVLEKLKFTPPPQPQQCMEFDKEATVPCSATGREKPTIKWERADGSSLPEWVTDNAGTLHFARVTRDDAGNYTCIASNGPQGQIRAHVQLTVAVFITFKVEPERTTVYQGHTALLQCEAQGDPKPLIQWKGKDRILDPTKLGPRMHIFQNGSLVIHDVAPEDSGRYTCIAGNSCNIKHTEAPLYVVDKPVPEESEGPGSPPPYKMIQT


Columns and labels:
[1] = target: T1, Recombinant human CCK4/PTK7 Protein …; test: BLI, antibody on anti-human Fc sensor
[2] = target: T2, Human PTK7 Protein, His Tag, Acro …; test: BLI, anti-human Fc capture, 50 nM PTK7; 1 = pH dependent binding relative to parent
[3] = target: T3, Human PTK7 Protein, His Tag (Acro …); test: BLI, antibody on anti-human Fc sensor, 50 nM PTK7 at pH 7.4, dissociation at pH 7.4 or 5.4; 1 = pH dependent binding relative to parent

binding result [2]	Binder	further results
–	MYT7858 (antibody, V domains shown, IgG) VH: QVQLVQSGPEVKKPGASVKVSCKASGYTFTDYAVHWVRQAPGKRLEWIGVISTYNDYTYNNQDFKGRVTMTRDTSASTAYMELSRLRSEDTAVYYCARGNSYFYALDYWGQGTSVTVSS VL: EIVLTQSPATLSLSPGERATLSCRAHESVDSYGKSFMAWYQQKPGQAPRLLIYRASNLESGIPARFSGSGSGTDFTLTISSLEPEDFAVYYCQQSNEDPWTFGGGTKLEIK	binding result [1]: no binding (tested: 50 nM PTK7)
–	MYT7862 (antibody, V domains shown, IgG) VH: QVQLVQSGPEVKKPGASVKVSCKASGYTFTDYAVHWVRQAPGKRLEWIGVISTYNDYTYNNQDFKGRVTMTRDTSASTAYMELSRLRSEDTAVYYCARGNSYFYALDYWGQGTSVTVSS VL: EIVLTQSPATLSLSPGERATLSCRASESVDHYGKSFMHWYQQKPGQAPRLLIYRASNLEHGIPARFSGSGSGTDFTLTISSLEPEDFAVYYCQQSNEDPWTFGGGTKLEIK	binding result [1]: no binding (tested: 50 nM PTK7)
binds	MYT11258 (antibody, V domains shown, MYT9792 variant, His at VH 30 (H1 05)) VH: EVQLVESGGGLVQPGGSLRLSCTASGIDLHRYSMGWVRQAPGKGLEWVGIISYGGSTYYASWAKGRFTISRDTSKNTVYLQMNSLRAEDTAVYFCARVGYPGYSGYGYAFDAFDPWGQGTLVTVSS VL: EIVMTQSPSTLSASVGDRVIITCQSSKSVYNDNWLSWYQQKPGKAPKLLIYGASTLASGVPSRFSGSGSGAEFTLTISSLQPDDFATYYCAGGYSSSSDNGFGQGTKLTVL	–
binds	MYT11279 (antibody, V domains shown, MYT9792 variant, His at VH 65 (H2 16)) VH: EVQLVESGGGLVQPGGSLRLSCTASGIDLSRYSMGWVRQAPGKGLEWVGIISYGGSTYYASWAKHRFTISRDTSKNTVYLQMNSLRAEDTAVYFCARVGYPGYSGYGYAFDAFDPWGQGTLVTVSS VL: EIVMTQSPSTLSASVGDRVIITCQSSKSVYNDNWLSWYQQKPGKAPKLLIYGASTLASGVPSRFSGSGSGAEFTLTISSLQPDDFATYYCAGGYSSSSDNGFGQGTKLTVL	–
binds	MYT11263 (antibody, V domains shown, MYT9792 variant, His at VH 35 (H1 10)) VH: EVQLVESGGGLVQPGGSLRLSCTASGIDLSRYSMHWVRQAPGKGLEWVGIISYGGSTYYASWAKGRFTISRDTSKNTVYLQMNSLRAEDTAVYFCARVGYPGYSGYGYAFDAFDPWGQGTLVTVSS VL: EIVMTQSPSTLSASVGDRVIITCQSSKSVYNDNWLSWYQQKPGKAPKLLIYGASTLASGVPSRFSGSGSGAEFTLTISSLQPDDFATYYCAGGYSSSSDNGFGQGTKLTVL	–
binds	MYT11285 (antibody, V domains shown, MYT9792 variant, His at VH 101 (H3 06)) VH: EVQLVESGGGLVQPGGSLRLSCTASGIDLSRYSMGWVRQAPGKGLEWVGIISYGGSTYYASWAKGRFTISRDTSKNTVYLQMNSLRAEDTAVYFCARVGYHGYSGYGYAFDAFDPWGQGTLVTVSS VL: EIVMTQSPSTLSASVGDRVIITCQSSKSVYNDNWLSWYQQKPGKAPKLLIYGASTLASGVPSRFSGSGSGAEFTLTISSLQPDDFATYYCAGGYSSSSDNGFGQGTKLTVL	–
binds	MYT11267 (antibody, V domains shown, MYT9792 variant, His at VH 53 (H2 04)) VH: EVQLVESGGGLVQPGGSLRLSCTASGIDLSRYSMGWVRQAPGKGLEWVGIISHGGSTYYASWAKGRFTISRDTSKNTVYLQMNSLRAEDTAVYFCARVGYPGYSGYGYAFDAFDPWGQGTLVTVSS VL: EIVMTQSPSTLSASVGDRVIITCQSSKSVYNDNWLSWYQQKPGKAPKLLIYGASTLASGVPSRFSGSGSGAEFTLTISSLQPDDFATYYCAGGYSSSSDNGFGQGTKLTVL	–
binds	MYT11272 (antibody, V domains shown, MYT9792 variant, His at VH 58 (H2 09)) VH: EVQLVESGGGLVQPGGSLRLSCTASGIDLSRYSMGWVRQAPGKGLEWVGIISYGGSTHYASWAKGRFTISRDTSKNTVYLQMNSLRAEDTAVYFCARVGYPGYSGYGYAFDAFDPWGQGTLVTVSS VL: EIVMTQSPSTLSASVGDRVIITCQSSKSVYNDNWLSWYQQKPGKAPKLLIYGASTLASGVPSRFSGSGSGAEFTLTISSLQPDDFATYYCAGGYSSSSDNGFGQGTKLTVL	–
–	MYT11410 (antibody, V domains shown, MYT9797 LC variant; captured via anti-human Fc) VH: EVQLVESGGGLVQPGGSLRLSCTASGIDLSNYAVIWVRQAPGKGLEWVGIIYTYDTTYYANWAKGRFTISRDTSKNTVYLQMNSLRAEDTAVYFCARSFSDISDLIKLWGQGTLVTVSS VL: EIVMTQSPSTLSASVGDRVIITCQASQSLYNNKDLAWYQQKPGKAPKLLIYEASKLASGVPSRFSGSGSGAEFTLTISSLQPDDFATYYCLGEFSCGSHDCLAFGQGTKLTVL	binding result [3]: binds
–	MYT11417 (antibody, V domains shown, MYT9797 LC alanine variant; captured via anti-human Fc) VH: EVQLVESGGGLVQPGGSLRLSCTASGIDLSNYAVIWVRQAPGKGLEWVGIIYTYDTTYYANWAKGRFTISRDTSKNTVYLQMNSLRAEDTAVYFCARSFSDISDLIKLWGQGTLVTVSS VL: EIVMTQSPSTLSASVGDRVIITCQASQSLYNNKALAWYQQKPGKAPKLLIYEASKLASGVPSRFSGSGSGAEFTLTISSLQPDDFATYYCLGEFSCGSGDCLAFGQGTKLTVL	binding result [3]: binds
–	MYT7963 (antibody, V domains shown, IgG) VH: EVQLVQSGGGLVHPGGSLRLSCAGSGFTHSTYLMYWVRQAPGKTLEWVSAIGSGGDTYYADSVKGRFTISRDNAKNSLYLQMNSLRAEDMAVYYCARGLGYWGQGTLVTVSS VL: not shown	binding result [1]: no binding (tested: 50 nM PTK7)
